Measured values from US20050255113A1, “Methods and compositions for inhibiting polypeptide accumulation associated with neurological disorders” (New York State Department of Health and Abgenix, Inc., priority 1999, published 2005).
No end group written: not given here.

How the values were obtained:
[1] = biological target: T1, biotinylated peptide corresponding to the 17 N-terminal amino acid residues of huntingtin (Nt-HD) (UniProt P42858 1-17); assay: BIAcore 2000 surface plasmon resonance, C4 sFv at 60, 80 and 100 nM over biotinylated HD peptide on a streptavidin sensor chip
T1 construct: range 1-17; Synthetic peptide; Captured on streptavidin (beads, plates or a BIAcore chip); also called biotinylated Nt-HD; biotinylated HD-peptide
T1 peptide (looked up): MATLEKLMKAFESLKSF-biotin
Method: (§1) For regeneration of the surface after binding of intrabody, 5 μl of 50 mM NaOH containing 1 M NaCl was injected, resulting in a return to baseline. […] The koff was determined from the dissociation part of the sensorgram at the highest concentration of intrabody analyzed by using a flow rate of 20 μl/min. The Kd was calculated as koff/kₒₙ.
(§2) To characterize the precise binding properties of the intrabody of the invention, further qualitative and quantitative studies of sFv binding to immobilized antigen were conducted in vitro.

[2] = biological target: T1, biotinylated peptide corresponding to …; assay: SPR, BIAcore 2000; HD peptide (1-17) with C-terminal biotin on a streptavidin chip, sFv in flow; 1:1 Langmuir model
Method: as §1, §2

[3] = biological target: T1, biotinylated peptide corresponding to …; assay: SPR, BIAcore 2000; HD peptide (1-17) with C-terminal biotin on a streptavidin chip, sFv in flow
Method: as §1, §2

B1: α-Nt-HD-C4 sFv (purified soluble sFv) (scFv)
scFv: QVQLQESGGGLVQPGGSLRLSCAASGFTFSSYSMSWVRQAPGKGLEWVAVISYDGSNKYYADSVKGRFTISRDNSKNTLYLQMNSLRAEDTAVYYCARDRYFDLWGRGTLVTVSSGGGGSGGGGSGGGGSQSALTQPASVSGSPGQSITISCTGTSSDIGAYNYVSWYQQYPGKAPKLLIYDVSNRPSGISNRFSGSKSGDTASLTISGLQAEDEADYYCSSFANSGPLFGGGTKVTVL
notes: Human sFv (VH-linker-VL) from a phage display library; Expressed in E. coli from pSYN-1 and purified on Ni-NTA; In the first ELISA screens it was used as bacterial supernatant from pHEN-1; Two subclones (clone 1, clone 2) were purified; they are treated here as the same molecule; also called N-HD-C4 sFv; anti-huntingtin intrabody C4 sFv; not shown: hexaHis tail from the pSYN-1 vector (sFv is also …)
B1 gave a koff [1] of 0.0015 s⁻¹, a kon [1] of 190000 M⁻¹ s⁻¹ and a Kd [2] of 7.9 nM. For the same binder, the Ka [3] was 1.3e+08 M⁻¹.
